Values joined by “and” are separate entries in the source; they are usually repeats but may differ in a detail not shown here. Identical values can stand only once.
T1: T. thermophilus Csm5, His10 tag cleaved off with HRV 3C protease (T. thermophilus, UniProt Q53W18 1-397)
T1 construct: Csm5 of Thermus thermophilus (locus TTHB151), codon-optimized gene; Same construct as m1 after 3C cleavage; also called TTHB151; source: E. coli BL21(λDE3), co-expressed with the other Csm subunits, Cas6A and crRNA 4.5; co-purified in the TthCsm complex (Ni-NTA, 3C cleavage, Ni-NTA, Superose 6)
T1 sequence (looked up): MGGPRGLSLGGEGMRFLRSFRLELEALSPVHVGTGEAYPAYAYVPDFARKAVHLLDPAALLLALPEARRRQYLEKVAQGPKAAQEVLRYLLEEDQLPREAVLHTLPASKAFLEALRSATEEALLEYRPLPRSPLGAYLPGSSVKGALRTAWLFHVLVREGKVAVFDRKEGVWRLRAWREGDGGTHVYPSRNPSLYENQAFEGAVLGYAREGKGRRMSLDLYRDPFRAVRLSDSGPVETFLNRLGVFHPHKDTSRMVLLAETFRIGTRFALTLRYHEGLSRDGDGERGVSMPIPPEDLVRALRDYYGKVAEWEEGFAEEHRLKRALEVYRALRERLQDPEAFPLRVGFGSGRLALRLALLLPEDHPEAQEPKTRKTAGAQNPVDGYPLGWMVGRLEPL


Columns and labels:
[1] = target: T. thermophilus Csm5, His10 tag cleaved off with HRV 3C protease (T. thermophilus) (UniProt Q53W18); test: native MS; native nanoESI-MS, positive ion mode, about 5 uM of the co-expressed and co-purified TthCsm complex (with crRNA) exchanged into 1 M ammonium acetate, 5% glycerol
[2] = target: T1, T. thermophilus Csm5, His10 tag cleaved …; test: as above; settings: both partners purified

Molecule | stoichiometry N [1] | stoichiometry N [2]
T. thermophilus Csm4 (from UniProt Q53W19 1-805) (natural protein) | 1 | –
T. thermophilus Cas10/Csm1 (natural protein, UniProt Q53W19 1-805, looked up, Cas10/Csm1 of Thermus thermophilus (locus TTHB147), codon-optimized gene; also called TTHB147; source: E. coli BL21(λDE3), co-expressed with the other Csm subunits, Cas6A and crRNA 4.5; in lysate, and co-purified in the TthCsm complex (Ni-NTA, Superose 6)) MLGDGLSVALAGLLHDVGKLYSRARWGERDDQVPDRTHTAYTAHFVREHAGLFRGAGLDPDWLARTASRHHEGWRDRPQYRPETPEEWCVALADTYASKEREEGEGGGSPPEVPLSPPFRRLLLGGEEGREGGYSPVGAGGRVGLEAGGLYPEERPNVSKDVYKRLLERLEGRLEEMARFSLGKEALVLNLALALQETLSLVPSDTQSEPDVSLYDHLRLTAAIAHALWLFHGGSPSAQNLRQDGEKFLLVVGDMGGIQGHIYRIAGAEAGVGGIAKRLRARSLEVSLAAEAMALGLLWRLGLTSLNRILGAGGKFYLLLPNTEEARAALEGTREAWGRWALKRGGSLVPHLAWVAFRGQDFRDFAALLKRLHEALAREKLRPFAFLASTGGVLGAPLRPCAACGLEPARRDEPGSLCPDCEREAALGARLPRSDRVGFFLEEAPRPYLDFPGLKVGLGGPLEGAFHLFRARLDFAPWPDPSEAKPLLGHLPRVEHALKAKGWSLEAYRAWAEEEGLLEDEEPHPEKVLTFAELAALSEGAPYLGALMLDADRMGEAFATGFRREGRDLATPSRLAALSRTLEVFFTTEVLTLLEEPRRYRERLGWDDLEAQRKEARYPLLYSVYSGGDDLFLLGPWDALLDFALDLERLYRLFTRHPRLTLSGGFLLVPPSLPVPELARLLGEAEKRAKAEGRERLFLFGQAVPWETLRGLRAWAEGLRQDLRAERVSRAQVYRWLLLWRRFSPLEDPGERMRYKPLLAYALRRVRERDEEAWKRYLKLLDHQDPAWAYLPVWVQWALYRERRV | – | 1

The next lines start with the values.

stoichiometry N [1] | stoichiometry N [2] | Molecule
6 and 4 | – | T. thermophilus Csm3 (natural protein)
3 and 4 | – | T. thermophilus Csm2 (natural protein)

Source: PMC5256923, “RNA and DNA Targeting by a Reconstituted Thermus thermophilus Type III-A CRISPR-Cas System” (PLoS ONE, 2017)
